Reference: patent publication US20220177596A1 (Bristol-Myers Squibb, published 2022)
Changes are numbered by the printed parent chain.

B1: humanized Y1238 hz23 (hz-HC5 / hz-LC3), IgG1.3f (antibody, V domains shown)
VH: QVQLVQSGAEVKKPGASVKVSCKASGYAFTNYLIEWVRQRPGQGLEWMGVINPGSGGTNYNEKFKGRVTMTADKSISTAYMELSRLRSDDTAVYYCARSQLGRRFDYWGQGTLVTVSS
VL: DIQMTQSPSSLSASVGDRVTITCKASQDVRTGVAWYQQKPGQSPKLLIYSASYRNTGVPSRFSGSRSGTDFTFTISSLQPEDIAVYYCQQHYSPPYTFGGGTKVEIK
notes: IgG1.3f heavy constant, common CL; expression supernatant; also called Sup 23
B2: humanized Y1238 hz41 (hz-HC9 / hz-LC1), IgG1.3f (antibody, V domains shown)
VH: B1 VH with K12V, M70L, I76S, E82Q, Y95F, L113T
VL: B1 VL with Q42K, S43A, R66G, V85T
notes: IgG1.3f heavy constant, common CL; expression supernatant; also called Sup 41
B3: humanized Y1238 hz48 (hz-HC10 / hz-LC3), IgG1.3f (antibody, V domains shown)
VH: B1 VH with A72R
VL: B1 VL
notes: IgG1.3f heavy constant, common CL; expression supernatant; also called Sup 48
B4: humanized Y1238 hz51 (hz-HC11 / hz-LC1), IgG1.3f (antibody, V domains shown)
VH: B1 VH with A72R, I76S, Y95F
VL: B1 VL with Q42K, S43A, R66G, V85T
notes: IgG1.3f heavy constant, common CL; expression supernatant; also called Sup 51
B5: humanized Y1238 hz45 (hz-HC9 / hz-LC5), IgG1.3f (antibody, V domains shown)
VH: B1 VH with K12V, M70L, I76S, E82Q, Y95F, L113T
VL: B1 VL with S43A
notes: IgG1.3f heavy constant, common CL; expression supernatant; also called Sup 45
B6: humanized Y1238 hz33 (hz-HC7 / hz-LC3), IgG1.3f (antibody, V domains shown)
VH: B1 VH with K12V, I76S, E82Q, Y95F
VL: B1 VL
notes: IgG1.3f heavy constant, common CL; expression supernatant; also called Sup 33
B7: humanized Y1238 hz30 (hz-HC6 / hz-LC5), IgG1.3f (antibody, V domains shown)
VH: B1 VH with M70L
VL: B1 VL with S43A
notes: IgG1.3f heavy constant, common CL; expression supernatant; also called Sup 30
B8: humanized Y1238 hz24 (hz-HC5 / hz-LC4), IgG1.3f (antibody, V domains shown)
VH: B1 VH
VL: B1 VL with P80A
notes: IgG1.3f heavy constant, common CL; expression supernatant; also called Sup 24
B9: humanized Y1238 hz46 (hz-HC10 / hz-LC1), IgG1.3f (antibody, V domains shown)
VH: B1 VH with A72R
VL: B1 VL with Q42K, S43A, R66G, V85T
notes: IgG1.3f heavy constant, common CL; expression supernatant; also called Sup 46
B10: humanized Y1238 hz49 (hz-HC10 / hz-LC4), IgG1.3f (antibody, V domains shown)
VH: B1 VH with A72R
VL: B1 VL with P80A
notes: IgG1.3f heavy constant, common CL; expression supernatant; also called Sup 49
B11: humanized Y1238 hz35 (hz-HC7 / hz-LC5), IgG1.3f (antibody, V domains shown)
VH: B1 VH with K12V, I76S, E82Q, Y95F
VL: B1 VL with S43A
notes: IgG1.3f heavy constant, common CL; expression supernatant; also called Sup 35
B12: humanized Y1238 hz27 (hz-HC6 / hz-LC2), IgG1.3f (antibody, V domains shown)
VH: B1 VH with M70L
VL: B1 VL with Q42K, S43A, V85T
notes: IgG1.3f heavy constant, common CL; expression supernatant; also called Sup 27
B13: humanized Y1238 hz42 (hz-HC9 / hz-LC2), IgG1.3f (antibody, V domains shown)
VH: B1 VH with K12V, M70L, I76S, E82Q, Y95F, L113T
VL: B1 VL with Q42K, S43A, V85T
notes: IgG1.3f heavy constant, common CL; expression supernatant; also called Sup 42
B14: humanized Y1238 hz32 (hz-HC7 / hz-LC2), IgG1.3f (antibody, V domains shown)
VH: B1 VH with K12V, I76S, E82Q, Y95F
VL: B1 VL with Q42K, S43A, V85T
notes: IgG1.3f heavy constant, common CL; expression supernatant; also called Sup 32
B15: humanized Y1238 hz39 (hz-HC8 / hz-LC4), IgG1.3f (antibody, V domains shown)
VH: B1 VH with K12V, M70L, I76S, E82Q, Y95F
VL: B1 VL with P80A
notes: IgG1.3f heavy constant, common CL; expression supernatant; also called Sup 39
B16: humanized Y1238 hz44 (hz-HC9 / hz-LC4), IgG1.3f (antibody, V domains shown)
VH: B1 VH with K12V, M70L, I76S, E82Q, Y95F, L113T
VL: B1 VL with P80A
notes: IgG1.3f heavy constant, common CL; expression supernatant; also called Sup 44
B17: humanized Y1238 hz38 (hz-HC8 / hz-LC3), IgG1.3f (antibody, V domains shown)
VH: B1 VH with K12V, M70L, I76S, E82Q, Y95F
VL: B1 VL
notes: IgG1.3f heavy constant, common CL; expression supernatant; also called Sup 38
B18: humanized Y1238 hz43 (hz-HC9 / hz-LC3), IgG1.3f (antibody, V domains shown)
VH: B1 VH with K12V, M70L, I76S, E82Q, Y95F, L113T
VL: B1 VL
notes: IgG1.3f heavy constant, common CL; expression supernatant; also called Sup 43
B19: humanized Y1238 hz47 (hz-HC10 / hz-LC2), IgG1.3f (antibody, V domains shown)
VH: B1 VH with A72R
VL: B1 VL with Q42K, S43A, V85T
notes: IgG1.3f heavy constant, common CL; expression supernatant; also called Sup 47
B20: humanized Y1238 hz54 (hz-HC11 / hz-LC4), IgG1.3f (antibody, V domains shown)
VH: B1 VH with A72R, I76S, Y95F
VL: B1 VL with P80A
notes: IgG1.3f heavy constant, common CL; expression supernatant; also called Sup 54
B21: humanized Y1238 hz29 (hz-HC6 / hz-LC4), IgG1.3f (antibody, V domains shown)
VH: B1 VH with M70L
VL: B1 VL with P80A
notes: IgG1.3f heavy constant, common CL; expression supernatant; also called Sup 29
B22: humanized Y1238 hz36 (hz-HC8 / hz-LC1), IgG1.3f (antibody, V domains shown)
VH: B1 VH with K12V, M70L, I76S, E82Q, Y95F
VL: B1 VL with Q42K, S43A, R66G, V85T
notes: IgG1.3f heavy constant, common CL; expression supernatant; also called Sup 36
B23: humanized Y1238 hz31 (hz-HC7 / hz-LC1), IgG1.3f (antibody, V domains shown)
VH: B1 VH with K12V, I76S, E82Q, Y95F
VL: B1 VL with Q42K, S43A, R66G, V85T
notes: IgG1.3f heavy constant, common CL; expression supernatant; also called Sup 31
B24: humanized Y1238 hz26 (hz-HC6 / hz-LC1), IgG1.3f (antibody, V domains shown)
VH: B1 VH with M70L
VL: B1 VL with Q42K, S43A, R66G, V85T
notes: IgG1.3f heavy constant, common CL; expression supernatant; also called Sup 26
B25: humanized Y1238 hz28 (hz-HC6 / hz-LC3), IgG1.3f (antibody, V domains shown)
VH: B1 VH with M70L
VL: B1 VL
notes: IgG1.3f heavy constant, common CL; expression supernatant; also called Sup 28
B26: humanized Y1238 hz52 (hz-HC11 / hz-LC2), IgG1.3f (antibody, V domains shown)
VH: B1 VH with A72R, I76S, Y95F
VL: B1 VL with Q42K, S43A, V85T
notes: IgG1.3f heavy constant, common CL; expression supernatant; also called Sup 52
B27: humanized Y1238 hz40 (hz-HC8 / hz-LC5), IgG1.3f (antibody, V domains shown)
VH: B1 VH with K12V, M70L, I76S, E82Q, Y95F
VL: B1 VL with S43A
notes: IgG1.3f heavy constant, common CL; expression supernatant; also called Sup 40
B28: humanized Y1238 hz50 (hz-HC10 / hz-LC5), IgG1.3f (antibody, V domains shown)
VH: B1 VH with A72R
VL: B1 VL with S43A
notes: IgG1.3f heavy constant, common CL; expression supernatant; also called Sup 50
B29: humanized Y1238 hz34 (hz-HC7 / hz-LC4), IgG1.3f (antibody, V domains shown)
VH: B1 VH with K12V, I76S, E82Q, Y95F
VL: B1 VL with P80A
notes: IgG1.3f heavy constant, common CL; expression supernatant; also called Sup 34
B30: humanized Y1238 hz37 (hz-HC8 / hz-LC2), IgG1.3f (antibody, V domains shown)
VH: B1 VH with K12V, M70L, I76S, E82Q, Y95F
VL: B1 VL with Q42K, S43A, V85T
notes: IgG1.3f heavy constant, common CL; expression supernatant; also called Sup 37
B31: humanized Y1238 hz53 (hz-HC11 / hz-LC3), IgG1.3f (antibody, V domains shown)
VH: B1 VH with A72R, I76S, Y95F
VL: B1 VL
notes: IgG1.3f heavy constant, common CL; expression supernatant; also called Sup 53

target: T1, human-CD40 monomer (human, UniProt P25942 21-193, limits assumed); experiment: SPR 2 pt screen, Ab on protein A
T1 construct: also called hCD40-monomer; human-CD40-monomer protein
Procedure: The VH sequences were formatted in the context of an IgG1.3f isotype. The Vκ sequences were formatted as a full light chain with a common CL sequence. All 55 combinations of these humanized HC and LC constructs, as well as the chimeric Y1238 molecule were expressed as 3 ml supernatants for binding analysis by SPR. Each of the 56 supernatants, as well as a purified Y1238-chimeric IgG1 antibody, was captured on a protein A sensor chip and tested for binding to two concentrations (i.e., 200 nM and 1000 nM) of hCD40-monomer using BIAcore™ SPR in a screening assay. All antibodies, except for those containing hz-HC3, captured at high levels (>300 RU) using a 100-fold dilution of the expression supernatant, indicating a high antibody titer in the supernatant except for the hz-HC3 samples. The kinetic data for the two concentrations of hCD40-monomer were fit to a 1:1 Langmuir model, to yield estimates of the kinetic and affinity values for these interactions, and for comparison of the different molecules. […] Also, for a given heavy chain, the antibodies with light chains hz-LC1 or hz-LC2 had higher CD40 affinity than those with hz-LC3, hz-LC4 or hz-LC5.

T1 sequence (P25942 21-193 limits assumed): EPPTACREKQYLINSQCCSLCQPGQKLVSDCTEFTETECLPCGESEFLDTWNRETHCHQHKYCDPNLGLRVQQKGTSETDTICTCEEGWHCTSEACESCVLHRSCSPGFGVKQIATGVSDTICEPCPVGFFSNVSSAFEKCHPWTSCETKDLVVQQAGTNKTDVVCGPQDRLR

Binder | Kd [nM] | koff [s⁻¹] | kon [M⁻¹ s⁻¹]
B1 | 7.2 | 0.00031 | 43000
B2 | 4.4 | 0.00017 | 38000
B3 | 14 | 0.00055 | 39000
B4 | 6.7 | 0.00025 | 37000
B5 | 9.6 | 0.00038 | 39000
B6 | 8.7 | 0.00035 | 40000
B7 | 7.7 | 0.00033 | 42000
B8 | 7.4 | 0.00032 | 43000
B9 | 5.1 | 0.0002 | 39000
B10 | 12 | 0.00048 | 39000
B11 | 9.2 | 0.00037 | 40000
B12 | 3.3 | 0.00013 | 40000
B13 | 5.4 | 0.0002 | 36000
B14 | 4.5 | 0.00017 | 37000
B15 | 7.5 | 0.0003 | 40000
B16 | 8.5 | 0.00033 | 39000

Binder | Kd [nM] | koff [s⁻¹] | kon [M⁻¹ s⁻¹]
B17 | 8.2 | 0.00032 | 39000
B18 | 7.6 | 0.00029 | 39000
B19 | 8.8 | 0.00032 | 36000
B20 | 15 | 0.00056 | 38000
B21 | 6.5 | 0.00028 | 42000
B22 | 3.7 | 0.00014 | 39000
B23 | 3 | 0.00012 | 39000
B24 | 2.9 | 0.00012 | 41000
B25 | 5.6 | 0.00024 | 42000
B26 | 6.5 | 0.00023 | 35000
B27 | 6.5 | 0.00026 | 39000
B28 | 16 | 0.00061 | 39000
B29 | 7.1 | 0.00028 | 40000
B30 | 2.8 | 0.00011 | 37000
B31 | 18 | 0.00067 | 37000
